# Reference: patent US8501695B2, “Tissue kallikrein for the treatment of diseases associated with amyloid protein” (DiaMedica, Inc., priority 2007, dated 2013)
# Values joined by “and” are separate entries in the source; they are usually repeats but may differ in a detail not shown here. Identical values can stand only once.
# Assay: Pharmacokinetic study of intranasal tissue kallikrein (125I-KLK1 tissue concentrations by gamma counting)
# Type: in vivo
# Conditions: rat, 30 min. end point, individual animal, listed as kallikrien
# Description: The purpose of this study was to quantify the amount of tissue kallikrein (KLK1) reaching the central nervous system and peripheral tissues after intranasal administration to anesthetized rats. At 30 min after KLK1 administration, animals were transcardially perfused with ice-cold saline followed by paraformaldehyde fixative and tissues were dissected. The amount of radiolabeled KLK1 in each tissue sample was quantified by gamma counting and tissue concentrations were calculated using tissue weight and gamma counting of standards of the dosing solutions
# Adult male Sprague Dawley rats (n=10, mean 335.4 g±4.57 g SE) were used for this study. Animals were group housed in the Regions Hospital Animal Care Facility with free access to food and water. Animals were kept on a 12 h light cycle. All experimental procedures were approved by the Animal Care and Use Committee at Regions Hospital under IACUC protocol number 08-022.
# Tissue kallikrein was sent to Perkin-Elmer for ^125I-labelling (Quote NEX-084, lot C1541583). Non-labeled KLK1 from Sigma (cat#K3627-1KU, lot 018K1441) was also used. Non-labeled KLK1 was dissolved in 1×PBS (10×PBS, Sigma, cat #P5493, lot 027K8405 diluted in sterile water). The average dose was 48.1 μL, 75 μCi, and 2.6 mg.
# • a. Prior to anesthesia, each rat was weighed. • b. An anesthesia cocktail was prepared and full, half, and quarter anesthesia doses were calculated according to the animal's weight with a full dose containing 30 mg/kg ketamine, 6 mg/kg xylazine, and 1 mg/kg acepromazine. • c. A 1-cc syringe fitted with a 25 G or 27 G, ½ inch needle was assembled and a full dose was drawn into the syringe for injection. • d. Rats were restrained in a towel as follows. Rats were placed ventral side down in the middle of a hand towel. The towel was then wrapped around the head and shoulders to restrain. Wrapped animals remained ventral side down while the left hind leg was located. • e. The left hind leg was drawn to the side and the needle was inserted just beneath the skin (subcutaneous) above the thigh. After ensuring that the needle was placed subcutaneously (and not intramuscularly), full doses were injected. Rats were placed in holding cages and the injection time noted. Animals should be under within 5 min. • f. Anesthesia was monitored throughout the procedures by assessing reflexes using pinching of the hind paw or tail. If a reflex was present, a half or quarter dose booster was administered as necessary. • g. During drug administration, animals received a half dose booster roughly 20-25 min after initial dose. Intranasal Delivery of ^125I-KLK1 • a. Anesthetized rats were placed on their backs on a heating pad in a metal surgical tray. The heating pad was connected to a thermostat and was automatically regulated to maintain a 37° C. temperature based on continuous measurement from a rectal probe. • b. A 2″×2″ gauze pad was rolled tightly into a pillow, taped together, and under the neck to maintain a correct neck position horizontal with the counter. • c. A lead impregnated shield was placed between the surgical tray and the experimenter for protection against radiation. The dose solution, pipette, pipette tips, and waste receptacle were arranged behind the shield for easy access. • d. A 6 μL drop was loaded into the pipette behind the shield. • e. A cotton swab covered in parafilm was used to occlude one naris completely (the flat part of the swab was pushed gently against the naris to prevent airflow), while the 6 μL drop was expelled slowly from the pipette (held at a 45° angle from the rat's midline), forming a drop on the pipette tip. The drop was lowered onto the open naris to be inhaled. • f. After two minutes, the alternate naris was occluded and a 6 μL drop was administered in the same fashion. • g. A drop was administered as described above every two minutes to alternating nares until a total of 8 drops was delivered (4 to each naris) over 14 min. • h. […]
molecule,measurement,value
"tissue kallikrein: serine protease that cleaves kininogen into kallidin; polypeptide SEQ ID NO:1 (Sus scrofa kallikrein 1), KLK1 from Sigma (protein, listed as Sus scrofa, 125I label in one form) MWSLVMRLALSLAGTGAAPPIQSRIIGGRECEKDSHPWQVAIYHYSSFQCGGVLVDPKWVLTAAHCKNDNYQVWLGRHNLFENEVTAQFFGVTADFPHPGFNLSLLKNHTKADGKDYSHDLMLLRLQSPAKITDAVKVLELPTQEPELGSTCQASGWGSIEPGPDDFEFPDEIQCVELTLLQNTFCADAHPDKVTESMLCAGYLPGGKDTCMGDSGGPLICNGMWQGITSWGHTPCGSANKPSIYTKLIFYLDWINDTITENP","concentration in Lung (R, top lobe)",48.6 nM and 48.7 nM and 46.8 nM and 18.2 nM and 37.2 nM and 30.1 nM and 27.9 nM and 24.4 nM and 64.3 nM and 25.5 nM
same,concentration in Medulla,12.3 nM and 9.9 nM and 13.99 nM and 17.4 nM and 11.1 nM and 21.0 nM and 21.1 nM and 10.6 nM and 20.5 nM and 10.8 nM
same,concentration in Midbrain,12.3 nM and 9.5 nM and 13.1 nM and 15.3 nM and 10.0 nM and 15.9 nM and 9.9 nM (2×) and 16.4 nM
same,"concentration in Muscle (R, deltoid)",24.2 nM (2×) and 17.7 nM and 17.5 nM and 15.8 nM and 12.4 nM and 16.5 nM and 23.1 nM and 29.3 nM and 33.2 nM
same,concentration in Occipital Cortex,9.8 nM (2×) and 9.6 nM and 12.7 nM and 12.3 nM and 14.1 nM and 14.0 nM and 13.6 nM and 19.2 nM
same,concentration in Olfactory Bulbs,44.4 nM and 39.9 nM and 128.1 nM and 168.8 nM and 66.2 nM and 220.9 nM and 123.5 nM and 74.5 nM and 157.1 nM and 48.2 nM
same,concentration in Olfactory Epithelium,"17,707.4 nM and 21,919.4 nM and 21,270.9 nM and 41,836.8 nM and 17,083.5 nM and 31,983.9 nM and 38,661.3 nM and 13,736.3 nM and 17,247.4 nM and 26,179.4 nM"
same,concentration in Optic Chiasm,20.7 nM and 14.4 nM and 41.3 nM and 34.7 nM and 51.4 nM and 8.4 nM and 38.2 nM and 27.0 nM and 28.7 nM
same,concentration in Parietal Cortex,7.5 nM and 8.5 nM and 10.5 nM and 9.0 nM and 10.1 nM and 18.5 nM and 14.3 nM and 12.8 nM and 17.6 nM and 12.3 nM
same,concentration in Pituitary,86.9 nM and 44.0 nM and 58.9 nM and 51.8 nM and 79.3 nM and 59.7 nM and 44.3 nM and 67.9 nM and 48.1 nM
same,concentration in Pons,12.4 nM and 10.0 nM and 13.9 nM and 16.2 nM and 10.1 nM and 22.0 nM and 18.6 nM and 10.6 nM and 20.4 nM and 10.2 nM
same,concentration in Posterior Trigeminal Nerve,82.3 nM and 37.8 nM and 60.5 nM and 48.7 nM and 47.7 nM and 50.2 nM and 35.9 nM and 70.5 nM and 32.6 nM
same,concentration in Renal artery (L),56.2 nM and 67.3 nM and 103.1 nM and 52.8 nM and 55.8 nM and 26.1 nM and 43.0 nM and 78.9 nM and 66.9 nM and 31.2 nM
same,concentration in Respiratory Epithelium,"78,502.7 nM and 75,759.2 nM and 26,815.1 nM and 82,292.8 nM and 126,759.8 nM and 34,402.4 nM and 71,775.8 nM and 107,890.6 nM and 91,206.0 nM and 64,295.5 nM"
same,concentration in Septal Nucleus,9.5 nM and 8.2 nM and 13.3 nM and 13.6 nM and 10.2 nM and 19.4 nM and 12.9 nM and 9.8 nM and 12.0 nM
same,concentration in Spinal Dura,23.1 nM and 26.3 nM and 36.1 nM and 21.4 nM and 16.9 nM and 26.6 nM and 26.2 nM and 39.7 nM and 20.1 nM and 29.5 nM
same,concentration in Spleen (tip),29.0 nM and 81.5 nM and 35.1 nM and 87.5 nM and 91.1 nM and 82.9 nM and 75.4 nM and 89.8 nM and 73.8 nM and 80.0 nM
same,concentration in Striatum,8.2 nM and 5.5 nM and 8.5 nM and 6.7 nM and 7.23 nM and 14.9 nM and 10.4 nM and 9.5 nM and 15.1 nM and 11.9 nM
same,concentration in Superficial Nodes (2),58.8 nM and 39.9 nM and 42.2 nM and 60.1 nM and 66.8 nM and 69.0 nM and 94.2 nM and 68.9 nM and 68.0 nM
same,concentration in Temporal Cortex,9.9 nM and 7.8 nM and 11.65 nM and 10.4 nM and 14.2 nM and 16.6 nM and 15.6 nM and 12.5 nM and 13.7 nM and 11.5 nM
same,concentration in Thalamus,7.9 nM and 6.7 nM and 12.2 nM (2×) and 10.5 nM and 8.1 nM and 15.4 nM and 14.0 nM and 7.2 nM and 9.1 nM
same,concentration in Thoracic Spinal Cord,5.5 nM and 5.1 nM and 6.7 nM and 4.5 nM and 4.2 nM and 6.5 nM and 4.7 nM and 5.7 nM and 4.1 nM and 5.0 nM
same,concentration in Thyroid,"1,730.9 nM and 2,077.1 nM and 2,106.5 nM and 1,369.2 nM and 2,644.1 nM and 2,380.4 nM and 1,219.8 nM and 2,016.7 nM and 2,148.4 nM and 2,013.3 nM"
same,concentration in Trachea,58.5 nM and 116.8 nM and 64.5 nM and 93.6 nM and 44.8 nM and 59.3 nM and 65.1 nM and 110.6 nM and 86.4 nM
same,concentration in Upper Cervical Spinal Cord,16.0 nM and 17.0 nM and 18.18 nM and 31.6 nM and 18.8 nM and 35.1 nM and 37.2 nM and 20.4 nM and 27.0 nM and 12.8 nM
same,concentration in Urine,249.2 nM and 79.5 nM and 190.9 nM and 57.8 nM and 51.1 nM and 65.6 nM and 287.4 nM and 95.8 nM and 139.2 nM and 90.6 nM
same,concentration in Ventral Dura,113.7 nM and 71.6 nM and 29.8 nM and 138.3 nM and 165.6 nM and 259.4 nM and 192.6 nM and 150.8 nM and 211.8 nM and 96.1 nM
